Assay results from article doi:10.1101/2022.10.06.511078.

Experiments:
[1] = biological target: Cofilin-1 (human) (UniProt P23528); assay: SPR
[2] = biological target: Ubiquitin carboxyl-terminal hydrolase isozyme L1 (human) (UniProt P09936); assay: SPR
Chain of Ubiquitin carboxyl-terminal hydrolase isozyme L1 (human) (P09936 whole entry): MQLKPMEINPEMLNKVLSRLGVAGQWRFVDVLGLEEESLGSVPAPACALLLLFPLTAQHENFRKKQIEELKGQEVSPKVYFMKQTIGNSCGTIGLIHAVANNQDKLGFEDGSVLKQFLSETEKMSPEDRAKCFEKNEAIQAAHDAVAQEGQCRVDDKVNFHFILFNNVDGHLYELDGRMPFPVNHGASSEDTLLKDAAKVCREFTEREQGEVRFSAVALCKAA

Chain of Cofilin-1 (human) (P23528 whole entry): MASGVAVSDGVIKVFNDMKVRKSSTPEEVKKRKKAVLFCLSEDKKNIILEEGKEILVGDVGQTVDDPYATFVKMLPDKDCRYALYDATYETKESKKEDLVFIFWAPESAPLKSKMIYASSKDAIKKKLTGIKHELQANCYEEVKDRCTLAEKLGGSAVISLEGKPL

α-synuclein oligomer (from UniProt P37840 1-140) (natural protein)
Kd [1]: 290 nM | Kd [2]: 600 nM
